US20240376207A1 (JIANGSU HENGRUI PHARMACEUTICALS, published 2024)

T1: human PVRIG expressed on cells (human, UniProt Q6DKI7 41-326)
T1 construct: whole, on cells; also called Human PVRIG FACS; cells overexpressing human PVRIG
T1 sequence (looked up): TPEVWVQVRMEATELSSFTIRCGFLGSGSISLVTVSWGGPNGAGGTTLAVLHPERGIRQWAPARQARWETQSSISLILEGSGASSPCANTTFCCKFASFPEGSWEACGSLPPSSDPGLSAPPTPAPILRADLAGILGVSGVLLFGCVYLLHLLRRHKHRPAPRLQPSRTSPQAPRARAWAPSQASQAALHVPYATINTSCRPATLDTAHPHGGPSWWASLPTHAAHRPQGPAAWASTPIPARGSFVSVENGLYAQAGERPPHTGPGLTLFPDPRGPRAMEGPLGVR

T2: mouse IgG2a Fc-tagged human PVRIG (h-PVRIG-mIgG2a Fc) recombinant protein (human, UniProt Q6DKI7 41-171, limits assumed)
T2 construct: bought from Acrobiosystems; not shown: mouse IgG2a Fc tag
T2 sequence (looked up): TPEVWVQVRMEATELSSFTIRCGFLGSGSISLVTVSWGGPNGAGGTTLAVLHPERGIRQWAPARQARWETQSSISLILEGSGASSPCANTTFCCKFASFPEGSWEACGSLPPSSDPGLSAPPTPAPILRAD

T3: his-tagged human PVRIG (h-PVRIG-his) recombinant protein (human, UniProt Q6DKI7 41-171, limits assumed)
T3 construct: bought from Acrobiosystems; also called Human PVRIG-his; human PVRIG recombinant protein; not shown: his tag
T3 sequence (looked up): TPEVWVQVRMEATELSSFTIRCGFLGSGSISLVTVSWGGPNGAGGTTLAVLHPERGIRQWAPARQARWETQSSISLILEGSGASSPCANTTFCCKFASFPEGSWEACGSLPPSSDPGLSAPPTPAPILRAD

T4: cynomolgus monkey PVRIG expressed on cells (cynomolgus monkey, UniProt A0A2K5WVV8 1-322)
T4 construct: whole, on cells; also called Monkey PVRIG FACS; cells overexpressing cynomolgus monkey PVRIG
T4 sequence: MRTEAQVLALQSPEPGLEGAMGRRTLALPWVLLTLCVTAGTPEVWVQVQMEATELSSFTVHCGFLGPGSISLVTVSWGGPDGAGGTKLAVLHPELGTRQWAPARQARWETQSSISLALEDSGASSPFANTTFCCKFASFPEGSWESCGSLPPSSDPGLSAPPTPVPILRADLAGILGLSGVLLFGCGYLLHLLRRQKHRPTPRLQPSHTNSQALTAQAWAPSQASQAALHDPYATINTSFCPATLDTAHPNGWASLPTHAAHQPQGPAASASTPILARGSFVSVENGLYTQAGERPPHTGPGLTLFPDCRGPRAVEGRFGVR

B1: positive antibody Tab5 (antibody, human IgG4 S228P, kappa, F234A L235A, V domains shown)
VH: EVQLVESGGGVVKPGGSLRLSCAASGFTFGTSSMNWVRQAPGKGLEWVAVISFDGTEIHYADSVKGRFTISRDNSKSTVFLQMNSLRPDDTALYYCAKGSGNIYFYSGMDVWGQGTTVTVSS
VL: DIQMTQSPSTLSASVGDRVTITCRAGQSISGWLAWFQQKPGKAPNLLIYETSTLESGVPSRFSGSGSGTEYTLTISSLQPDDFATYYCQQYYSYPLTFGQGTKVEIKR
notes: Variable regions of CPA.7.021 (WO2016134333A1) on human IgG4 (S228P/F234A/L235A/K447A) and human kappa constant regions
B2: humanized anti-PVRIG/TIGIT bispecific antibody 1708-20H5 (bispecific antibody, human IgG4 S228P, kappa)
heavy: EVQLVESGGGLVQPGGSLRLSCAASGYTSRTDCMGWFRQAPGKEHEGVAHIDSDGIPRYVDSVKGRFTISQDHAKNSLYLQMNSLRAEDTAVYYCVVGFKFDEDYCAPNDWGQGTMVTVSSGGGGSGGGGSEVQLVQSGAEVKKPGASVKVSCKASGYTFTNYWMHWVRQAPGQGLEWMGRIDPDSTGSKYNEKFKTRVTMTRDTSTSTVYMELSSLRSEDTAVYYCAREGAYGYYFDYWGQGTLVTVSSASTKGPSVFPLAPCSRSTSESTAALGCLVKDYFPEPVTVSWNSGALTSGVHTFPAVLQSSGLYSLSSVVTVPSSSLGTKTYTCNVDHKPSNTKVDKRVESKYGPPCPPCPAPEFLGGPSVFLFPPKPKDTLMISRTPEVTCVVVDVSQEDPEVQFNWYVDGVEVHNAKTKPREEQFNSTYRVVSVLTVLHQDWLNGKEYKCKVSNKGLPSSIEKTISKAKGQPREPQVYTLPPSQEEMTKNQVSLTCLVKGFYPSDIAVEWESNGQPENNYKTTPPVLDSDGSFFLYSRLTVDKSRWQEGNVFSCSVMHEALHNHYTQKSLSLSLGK
light: DIQMTQSPSSLSASVGDRVTITCRASENIYSYLAWYQQKPGKSPKLLIYNARTLAEGVPSRFSGSGSGTDFTLTISSLQPEDFATYYCQYHSGSPLPFGGGTKVEIKRTVAAPSVFIFPPSDEQLKSGTASVVCLLNNFYPREAKVQWKVDNALQSGNSQESVTEQDSKDSTYSLSSTLTLSKADYEKHKVYACEVTHQGLSSPVTKSFNRGEC
B3: humanized anti-PVRIG/TIGIT bispecific antibody 1708-30H2 (bispecific antibody, human IgG4 S228P, kappa)
heavy: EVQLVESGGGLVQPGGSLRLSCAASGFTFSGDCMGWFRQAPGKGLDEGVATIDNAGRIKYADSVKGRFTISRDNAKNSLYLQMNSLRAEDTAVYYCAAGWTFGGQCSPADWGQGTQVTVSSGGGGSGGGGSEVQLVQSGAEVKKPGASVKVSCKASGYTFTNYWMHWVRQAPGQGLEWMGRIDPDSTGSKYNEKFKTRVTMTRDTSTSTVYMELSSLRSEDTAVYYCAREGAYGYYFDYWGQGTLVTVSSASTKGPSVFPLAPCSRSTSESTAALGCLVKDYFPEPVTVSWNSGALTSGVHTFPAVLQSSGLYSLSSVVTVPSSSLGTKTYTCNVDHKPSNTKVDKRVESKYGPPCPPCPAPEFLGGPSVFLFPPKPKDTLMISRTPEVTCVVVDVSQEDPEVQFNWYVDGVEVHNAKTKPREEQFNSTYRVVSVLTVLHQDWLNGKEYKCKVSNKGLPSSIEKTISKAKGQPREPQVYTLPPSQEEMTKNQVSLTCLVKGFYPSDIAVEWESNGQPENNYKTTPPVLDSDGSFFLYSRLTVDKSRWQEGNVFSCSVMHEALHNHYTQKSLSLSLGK
light: DIQMTQSPSSLSASVGDRVTITCRASENIYSYLAWYQQKPGKSPKLLIYNARTLAEGVPSRFSGSGSGTDFTLTISSLQPEDFATYYCQYHSGSPLPFGGGTKVEIKRTVAAPSVFIFPPSDEQLKSGTASVVCLLNNFYPREAKVQWKVDNALQSGNSQESVTEQDSKDSTYSLSSTLTLSKADYEKHKVYACEVTHQGLSSPVTKSFNRGEC

How the values were obtained:
[1] = molecular target: T1, human PVRIG expressed on cells; assay: FACS, cells overexpressing target
[2] = molecular target: T1, human PVRIG expressed on cells; assay: FACS, HEK293 cells overexpressing target
Procedure: The expression plasmid carrying human or cynomolgus monkey PVRIG gene sequence was transfected into HEK293 cells, and the over-expressing stable transfection monoclonal cell strain was obtained by antibiotic screening and infinite dilution. Overexpressing cells were seeded into a 96-well plate at 2×10⁵ cells/per well. The cells were centrifuged at 300 g for 5 min, the supernatant was then removed, 100 μL of the test antibody was added, and the mixture was incubated at 4° C. for 1 h. The mixture was centrifuged, the supernatant was removed, the plate was washed 3 times with 200 μL of wash buffer (PBS+2% FBS), and then 100 μL of an anti-human IgG secondary antibody (Invitrogen, A-11013) labeled with Alexa Fluor 488 diluted at 1:500 was added. The mixture was incubated at 4° C. for 1 h. The plate was centrifuged, and the supernatant was removed. The plate was washed 3 times with 200 μL of wash buffer (PBS+2% FBS). The cells were resuspended in 100 μL of PBS and tested on a flow cytometer (BD FACS Calibur or BD FACS Canto_II).
Binding of the humanized anti-PVRIG antibodies to human or cynomolgus monkey PVRIG was detected by using a flow cytometer according to the method of Example 5.

[3] = molecular target: T1, human PVRIG expressed on cells; assay: cell-based or functional assay
[4] = molecular target: T2, mouse IgG2a Fc-tagged human PVRIG …; assay: competition ELISA; human PVRIG coated, competitor human PVRL2
[5] = molecular target: T3, his-tagged human PVRIG (h-PVRIG-his) …; assay: ELISA, coated antigen
[6] = molecular target: T4, cynomolgus monkey PVRIG expressed on …; assay: FACS, cells overexpressing target

Row | Binder | EC50 [1] [nM] | EC50 [2] [nM] | PVRIG reporter gene cell activity EC50 [3] [nM] | IC50 [4] [nM] | EC50 [5] [nM] | EC50 [6] [nM]
1 | B1 | 3.15 | 0.16 | 1.38 | 0.797 | 1.86 | –
2 | B2 | – | – | – | – | – | 0.07
3 | B3 | – | – | – | – | – | 3.54
